Data as given in the nanobody polyreactivity screen of Harvey et al. (2022).

Experiment: yeast display, Sf9 membrane polyspecificity reagent, FACS + sequencing; frameworks hold sequencing errors
Outline: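 Genes from sorted yeast were amplified by colony PCR, read by MiSeq 2 × 250 sequencing and filtered on CDR length. These cells carried a synthetic nanobody library in Saccharomyces cerevisiae BJ5465 and were sorted by FACS into low and high (top ~1%) gates on anti-HA and streptavidin fluorescence. Polyreactivity is labelled according to the gate of origin.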

Sequence	polyreactivity (PSR sort gate)
QVQLVESGGGLVQAGGSLRLTCAASGRIFSRNAMGWYRQAPGKERELVAAISSSGGSTSYADSVKGRFTISRDNAKNTVYLQMNSLKPEDTAVYYCAADSYPAYLGFVGFDYWGQGTQVTVSS	low polyreactivity
QVQLVESGGGLVQAGGSLRLTCAASGRIFSYNAMGWYRQAPGKERELVAAITGGGSTNYADSVKGRFTISRDNAKNTVFLQMNSLKPEDTAVYYCAARSWSYKYWGQGTQVTVSS	high polyreactivity
QVQLVESGGGLVQAGGSLRLTCAASGRPFGKNGMGWYRQAPGKEREWVAAISLSGGSTYYADSVKGRFTISRDYAKNTVYLQMNSLKPEDTAVYYCAAYGIRGPVYQYYFWGQGTQVTVSS	low polyreactivity
QVQLVESGGGLVQAGGSLRLTCAASGRTFAWYAMGWYRQAPGKERELVAAISSGGSTYYADSVKGRFTISRDNAKNTVYLQMDSLKPEDTAVYYCAAEWHYIYAYDYWGQGTQVTVSS	low polyreactivity
QVQLVESGGGLVQAGGSLRLTCAASGRTFDCYAMGLYRQAPGKERELVAAISSRGGSTYYADSVKGRFTISRDNAKNTVYLQMNSLKPEDTSVYYCAKDLGYRGRYNYWGQGTQVTVSS	low polyreactivity
QVQLVESGGGLVQAGGSLRLTCAASGRTFFVYAMGWYRPAPGKERELVASITLSGGSTYYADSVKGRFTISRDNAKNTVYLQMNSLKPEDTAVYYCAKGWSRDNDREREDEYWGQGTQVTVSS	low polyreactivity
QVQLVESGGGLVQAGGSLRLTCAASGRTFPRYAMGWYRQAPGKERELVAAINSGGSTYYADSVKGRFTISRDNAKNSVYLQMNSLKPEDTAVYYCAAEGYTLGDGVYWIGPYDYWGQGTQLTVSS	high polyreactivity
QVQLVESGGGLVQAGGSLRLTCAASGRTFQYNAMVWYRQAPGKERELVAAISSSGGSTYYADSVKGRFTISRDNAKNTVYLQMNSLKPEDTAVYYCNAYSQSWNFYGDGDYWGQGTQVTVSS	low polyreactivity
QVQLVESGGGLVQAGGSLRLTCAASGRTFRIYAMGWYRQAPGKERELVAAIRWSGGTTYYADSVKGRFTISRDNAKNTVYFQMNSLKPEDTAVYYCAADSTNRYDYWGQGTQVTVSS	high polyreactivity
QVQLVESGGGLVQAGGSLRLTCAASGRTFRPYAMGGYRQAPGKERQLVAAITYSGGSTYYADSVKGRFTISRDNAKNTVYLQMNSLKPEDTAVYYCAAEIAATYRPEYDYWGQGTQVTVSS	high polyreactivity
QVQLVESGGGLVQAGGSLRLTCAASGSIFGAKAIGWYIQAPGKERELVAALTWSDTSTYYADSVKGRFTISRDNAKNTVYLQMNSLKPEDTAVYYCAAEYEWVTWGWGYYYWGQGTQVTVSS	high polyreactivity
QVQLVESGGGLVQAGGSLRLTCAASGSIFGYAMGWSRQAPGKERELVAALSFSGVSTYYAYSVKGRFTISRDNAKNTVYLQMNSLKPEDTAVYYCNAYSDGDEDYWGQGTQVTVSS	low polyreactivity
QVQLVESGGGLVQAGGSLRLTCAASGSIFTYYVRGWYRQAPGKEMELVARISRRGGSTYYADSVKGRFTISRDNAKNTVYLQMNSLKPEDTAFYYCNRVFYYDRDNYDYWGQGTQVTVSS	high polyreactivity
QVQLVESGGGLVQAGGSLRLTCAASGSIFYRYVMGWYRQAPGKEMELVAVISGSGGNTYYADSVKGRFTISRDNAKNTVYLQRNSLTPDDTAVYYCAASWYFLPTQTRPYYGYYYWGQATQVTVSS	high polyreactivity
QVQLVESGGGLVQAGGSLRLTCAASGSTFAFYAMGWYRQAPGKERELVAAITLIGGNTYYADSVKGRFTISRDNAKNTVYLQMYSLKPEDTAVYYFAAGGYYVRYPKSWYNYWGQGTQVTVSS	low polyreactivity
QVQLVESGGGLVQAGGSLRLTCAASGSTFGVYAMGWYRQAPRKDRELFAAISSSTGSTYYADSVKGRFTISRHKAKNTVYLQRNSLKPEDTAVYYRAAAGYGKVRGDYWGQGTQVTVSS	low polyreactivity
QVQLVESGGGLVQAGGSLRLTCAASGSTFHSNAMGWYREAPGKERELVAAISQGGGRTYYADSVKGRFTISRDNAKNTVYLQMNSLKPEDTAVYYCNRRTRGLIDGGMDYWGQGTQVTLSS	low polyreactivity
QVQLVESGGGLVQAGGSLRLTCAASGSTFINYAMGWYRQAPGKERELVAAYADSVKGRFTISRDNAKNTVYLQMNSLKPEDTAVYYCNAVTGEWGQGTQVTVSS	low polyreactivity
QVQLVESGGGLVQAGGSLRLTCAASGSTFITYAMGWYRQAPGKERELVAAIRVIGGRTYYADSVKGRFTISRDNAKNTVYLQMNSLKPEDTAVYYCAARPYKSYGYHYSYDYWGQGTQVTVSS	high polyreactivity
QVQLVESGGGLVQAGGSLRLTCAASGSTFQTYVMGLYIQAPGKERELVAAISSGGSTNYADSVKGRFTISRDNAKNNVYLLMKSLKPEDTAVYYCAAVYWAWGKNEYEYWGQGTQVTVSS	low polyreactivity
QVQLVESGGGLVQAGGSLRLTCAASGSTFQVNDMGWYRQAPGKDRELLASISGGSSTNYADSVKGRFTISRDNAKNTVYLQMHSLQPEDTAVYYCAAYYLSGLRVAYDYWGQGPQVTVSS	low polyreactivity
QVQLVESGGGLVQAGGSLRLTCAASGSTFTGYAMGWSIQAPGKERELVAGITGSGGSTYYADSVKGRFTISRDNAKNTVYLQMNSLKPEDTAVYYCNAVHWGGTYWGLDYWGQGTQVTVSS	low polyreactivity

Sequence	polyreactivity (PSR sort gate)
QVQLVESGGGLVQAGGSLRLTCAASGSTFTVNGMGWYRQAPGKERELVASITWSGGSTYYADSVKGRFTISRDNAKITVYLQMNSLKPEDTAVYYCAADEKLYITGYDYWGQGTQVTVSS	low polyreactivity
QVQLVESGGGLVQAGGSLRLTCAASGSTFVPYVMGWYRQAPGKERELVAVITWTGGSTYYADSVKGRFTISRDNAKNTVYLQMNSLKPEDTAVYYCAAEYSPWFYFEQYDYWGQGTQVTVSS	low polyreactivity
QVQLVESGGGLVQAGGSLRLTCAASGSTFVWYGMGWYRQAPGKEREFVAAISTSGGRTYYADSVKGRFTISRDNAKNTVYLQMNSLKPEDTAVYYCATRPYFTYRWYDYWGQGTQVTVSS	high polyreactivity
QVQLVESGGGLVQAGGSLRLTCAASGSTFWSNSMGWYRQAPGKERELVAAISSRGGSTYYADSVKGRFTISRDNAMNTVYLQMNSLKPEDTAVYYCAARSKRLAHDYWGQGTQVTVSS	high polyreactivity
QVQLVESGGGLVQAGGSLRLTCAASGSTFYSYVMGWYRQAPGKERELVAAIDYSGDSTYYADSVKGRFTISRDNAKNTVYLQMNSLKPEDTAVYYCAKDGVWYYSGTGMDYWGHGTQVTVSS	low polyreactivity
QVQLVESGGGLVQAGGSLRLTCAASGSTLWYYAMGWYRQAPGKERELVADITSSGNTNYADSVKGRFTISRDNAKNTVYLQMNSLKPEDTAVYYCAADSANYQWYLSWQKDDYWGQGTQVTVSS	low polyreactivity
QVQLVESGGGLVQAGGSLRLTCAASGTIFVRLDMGWYRQAPGNEREFVATIGSGSSTYYADSVKGSFTISRDNVKNTVYLQMNSLKPEDTAVYYCAVSAAEQSRHYYWDQGTQVTVSS	low polyreactivity
QVQLVESGGGLVQAGGSLRLTCAASGYIFRLNAMGWYRQAPGKEMELVAGISPGGRTNYADSVKGRFTISRDNAKNTVNLQMNSLKPEDTAVYYCAAAWNTAYWVGSDSLGGGYWGLGTQVTVSS	low polyreactivity
QVQLVESGGGLVQAGGSLRLTCAASGYTLSVNAKGWSRQAPGKEMDLVATNDFGGGSTYYADSVKGRFTISRDNAKNTVYLQMNSLKREDTAVYYCATDGGAAWGRYYWDYGYWGQGTQVTVSS	low polyreactivity
QVQLVESGGGLVQAGGSLRLTCDASGGIFAVNVMGWYRQAPWKERELVAAITSTGSTYYADSVKGRFTISRDNAKNTVYLQMNSLTPEDTAVYYCAADYVYYDSYDDTVFGYDYWGQGTQVTVSS	high polyreactivity
QVQLVESGGGLVQAGGSLRLTCDASGSIFSVYAMGWYRQAPGKERELVAAITSSGGITYYADSVKGRFTISRDNSKNTVYLQMNSLKPEDTAVYYCATDRVLHYWVLSMDYWGQGTQVTVSS	low polyreactivity
QVQLVESGGGLVQAGGSLRLTCDASGSIIRLYAMVWYRQAPGKERELVDAISYNSGTTYYADSVKGRFTISRDNAKNTVYLQMNSLKPADTAVYYCAARRYYNYDWRQGTQVTVSS	high polyreactivity
QVQLVESGGGLVQAGGSLRLTCPASGGIFYDYSMVWYRQAPGKERQLVAAITRSGDSTYYADSVKGRFTISRDNAKNTVYLQMNSLKPEDTAVYYCAADIWSSDYEEFYYWVQGTQVTVSS	low polyreactivity
QVQLVESGGGLVQAGGSLRLTSAASGFTFYPYAMGWYRQATGKEMELVAAINSGGSTYYADSVKGRFTISRDNAKNSVYLQMNSLKPEDTAVYYCAAYGKRGAVAFYYWGQGTQVTVSS	high polyreactivity
QVQLVESGGGLVQAGGSLRLTSAASGRIFYNYAIGWYRQAPGKERELVAAISSSGGSTYYADSVKGRFTISRDNAKNTVYVQMNSLKPEDTAVYYCAAYSYGLYYTYDYWGQGTQVTVSS	high polyreactivity
QVQLVESGGGLVQAGGSLRLTSAASGRTFGTNPMGWYRQETGKERELVDAISRRGGSTYYADSVKARFTISRDNAKNTVNLQMNSLKPEDTAVYYCAKTIGLKHEDEYWGQGTQVTVSS	low polyreactivity
QVQLVESGGGLVQAGGSLRLTSAASGSIFQNYAMGWYRQAPGKERQLVAVIDDSGGITYYADSVKGRFTISRDNAKNTVYLEMNSLKPEDTAVYYCARNVNAKKVLGGFDSWGQGTQVTVSS	low polyreactivity
QVQLVESGGGLVQAGGSLRLTSAGSGRIFDYNAMGCYRQAPGKERELVAAITYSGGSTYYADSVKGRFTISRDNAKNTVYLQMNSLKPEDTAVYYCAAPDPYYHYRYPWQSRYDYNYWGQGTQVTVSS	low polyreactivity
QVQLVESGGGLVQAGGSLRLTSAGSGRIFVPYAMGCYRQAPGKERELVATITFGGGRTYYADSVKGRFTISRDNAKTTVFLQMNSLKPEDTAVYYCNAEGWYSVEYDYWGQGTQVTVSS	low polyreactivity
QVQLVESGGGLVQAGGSLRLTWAASGFILGYYAMGWYRQAPGKERELLPGISRSGGSTYYADSVKGRYTISRDNAKNTVYLQMNSLKPEDTSVYYCAKYPPYYTAYGWKYVYWGQGTQVTLSS	high polyreactivity
QVQLVESGGGLVQAGGSLRSSCAASGSIFQYYALGWYRQAPGNERELVAAISSGGRTNYADSVKGRFTISRDNAKNTVYLQMNSLKPEDTAVYYCAAARYYYQVYRWEYDYWGQGTQVTVSS	high polyreactivity
